Data as given in publication PMC5015263, “Casitas B-lineage lymphoma linker helix mutations found in myeloproliferative neoplasms affect conformation” (BMC Biology, 2016).

These binders were tested against T1, UbcH5B S22R C85K–Ub (UniProt P62837 1-147; P0CG47 1-76, S22R | C85K, conjugated to Ub via an isopeptide bond (non-hydrolyzable amide linkage) | conjugated to UbcH5B via an isopeptide bond) (assay: SPR; GST-Cbl variants coupled to CM-5 chips; UbcH5B–Ub as analyte at 0–120 μM; Biacore T200). Details: both partners purified.
T1 construct: E2 ubiquitin-conjugating enzyme UbcH5B; ubiquitin (Ub); also called UbcH5B–Ub; E2–Ub; source: expressed, generated and purified as described previously [7]

Kd	Binder
84 µM	His-GST-N-Cbl wild-type (residues 47-435) (domain or fragment, UniProt P22681 47-435, looked up, Cbl (c-Cbl), N-terminal fragment with TKBD, linker helix region and RING domain (N-Cbl), residues 47-435; Modified pGEX4T1 with N-terminal His-GST tag followed by a thrombin or TEV cleavage site; tag not cleaved for SPR; also called WT; wild-type N-Cbl; not shown: His, N-terminal, kept; GST, N-terminal, kept) PPGTVDKKMVEKCWKLMDKVVRLCQNPKLALKNSPPYILDLLPDTYQHLRTILSRYEGKMETLGENEYFRVFMENLMKKTKQTISLFKEGKERMYEENSQPRRNLTKLSLIFSHMLAELKGIFPSGLFQGDTFRITKADAAEFWRKAFGEKTIVPWKSFRQALHEVHPISSGLEAMALKSTIDLTCNDYISVFEFDIFTRLFQPWSSLLRNWNSLAVTHPGYMAFLTYDEVKARLQKFIHKPGSYIFRLSCTRLGQWAIGYVTADGNILQTIPHNKPLFQALIDGFREGFYLFPDGRNQNPDLTGLCEPTPQDHIKVTQEQYELYCEMGSTFQLCKICAENDKDVKIEPCGHLMCTSCLTSWQESEGQGCPFCRCEIKGTEPIVVDPFD
9 µM	His-GST-N-Cbl Y371E (residues 47-435) (domain or fragment, UniProt P22681 47-435, looked up, Cbl (c-Cbl), N-terminal fragment with TKBD, linker helix region and RING domain (N-Cbl), residues 47-435; Tag not cleaved for SPR; not shown: His, N-terminal, kept; GST, N-terminal, kept) PPGTVDKKMVEKCWKLMDKVVRLCQNPKLALKNSPPYILDLLPDTYQHLRTILSRYEGKMETLGENEYFRVFMENLMKKTKQTISLFKEGKERMYEENSQPRRNLTKLSLIFSHMLAELKGIFPSGLFQGDTFRITKADAAEFWRKAFGEKTIVPWKSFRQALHEVHPISSGLEAMALKSTIDLTCNDYISVFEFDIFTRLFQPWSSLLRNWNSLAVTHPGYMAFLTYDEVKARLQKFIHKPGSYIFRLSCTRLGQWAIGYVTADGNILQTIPHNKPLFQALIDGFREGFYLFPDGRNQNPDLTGLCEPTPQDHIKVTQEQYELECEMGSTFQLCKICAENDKDVKIEPCGHLMCTSCLTSWQESEGQGCPFCRCEIKGTEPIVVDPFD
2.6 µM	His-GST-pTyr371-N-Cbl Y368F (residues 47-435) (domain or fragment, UniProt P22681 47-435, looked up, phosphotyrosine at 371, Cbl (c-Cbl), N-terminal fragment with TKBD, linker helix region and RING domain (N-Cbl), residues 47-435; Y368F is required for homogeneous phosphorylation at Tyr371; also called pY371 Y368F; source: generated as described previously [6]; not shown: His, N-terminal, kept; GST, N-terminal, kept) PPGTVDKKMVEKCWKLMDKVVRLCQNPKLALKNSPPYILDLLPDTYQHLRTILSRYEGKMETLGENEYFRVFMENLMKKTKQTISLFKEGKERMYEENSQPRRNLTKLSLIFSHMLAELKGIFPSGLFQGDTFRITKADAAEFWRKAFGEKTIVPWKSFRQALHEVHPISSGLEAMALKSTIDLTCNDYISVFEFDIFTRLFQPWSSLLRNWNSLAVTHPGYMAFLTYDEVKARLQKFIHKPGSYIFRLSCTRLGQWAIGYVTADGNILQTIPHNKPLFQALIDGFREGFYLFPDGRNQNPDLTGLCEPTPQDHIKVTQEQFELYCEMGSTFQLCKICAENDKDVKIEPCGHLMCTSCLTSWQESEGQGCPFCRCEIKGTEPIVVDPFD
39 µM	His-GST-N-Cbl Y371H (residues 47-435) (domain or fragment, UniProt P22681 47-435, looked up, Cbl (c-Cbl), N-terminal fragment with TKBD, linker helix region and RING domain (N-Cbl), residues 47-435; mutation identified in MDS/MPN clinical samples; Tag not cleaved for SPR; not shown: His, N-terminal, kept; GST, N-terminal, kept) PPGTVDKKMVEKCWKLMDKVVRLCQNPKLALKNSPPYILDLLPDTYQHLRTILSRYEGKMETLGENEYFRVFMENLMKKTKQTISLFKEGKERMYEENSQPRRNLTKLSLIFSHMLAELKGIFPSGLFQGDTFRITKADAAEFWRKAFGEKTIVPWKSFRQALHEVHPISSGLEAMALKSTIDLTCNDYISVFEFDIFTRLFQPWSSLLRNWNSLAVTHPGYMAFLTYDEVKARLQKFIHKPGSYIFRLSCTRLGQWAIGYVTADGNILQTIPHNKPLFQALIDGFREGFYLFPDGRNQNPDLTGLCEPTPQDHIKVTQEQYELHCEMGSTFQLCKICAENDKDVKIEPCGHLMCTSCLTSWQESEGQGCPFCRCEIKGTEPIVVDPFD
16 µM	His-GST-N-Cbl Y371S (residues 47-435) (domain or fragment, UniProt P22681 47-435, looked up, Cbl (c-Cbl), N-terminal fragment with TKBD, linker helix region and RING domain (N-Cbl), residues 47-435; mutation identified in MDS/MPN clinical samples; Tag not cleaved for SPR; not shown: His, N-terminal, kept; GST, N-terminal, kept) PPGTVDKKMVEKCWKLMDKVVRLCQNPKLALKNSPPYILDLLPDTYQHLRTILSRYEGKMETLGENEYFRVFMENLMKKTKQTISLFKEGKERMYEENSQPRRNLTKLSLIFSHMLAELKGIFPSGLFQGDTFRITKADAAEFWRKAFGEKTIVPWKSFRQALHEVHPISSGLEAMALKSTIDLTCNDYISVFEFDIFTRLFQPWSSLLRNWNSLAVTHPGYMAFLTYDEVKARLQKFIHKPGSYIFRLSCTRLGQWAIGYVTADGNILQTIPHNKPLFQALIDGFREGFYLFPDGRNQNPDLTGLCEPTPQDHIKVTQEQYELSCEMGSTFQLCKICAENDKDVKIEPCGHLMCTSCLTSWQESEGQGCPFCRCEIKGTEPIVVDPFD
36 µM	His-GST-N-Cbl Y371C (residues 47-435) (domain or fragment, UniProt P22681 47-435, looked up, Cbl (c-Cbl), N-terminal fragment with TKBD, linker helix region and RING domain (N-Cbl), residues 47-435; mutation identified in MDS/MPN clinical samples; Tag not cleaved for SPR; not shown: His, N-terminal, kept; GST, N-terminal, kept) PPGTVDKKMVEKCWKLMDKVVRLCQNPKLALKNSPPYILDLLPDTYQHLRTILSRYEGKMETLGENEYFRVFMENLMKKTKQTISLFKEGKERMYEENSQPRRNLTKLSLIFSHMLAELKGIFPSGLFQGDTFRITKADAAEFWRKAFGEKTIVPWKSFRQALHEVHPISSGLEAMALKSTIDLTCNDYISVFEFDIFTRLFQPWSSLLRNWNSLAVTHPGYMAFLTYDEVKARLQKFIHKPGSYIFRLSCTRLGQWAIGYVTADGNILQTIPHNKPLFQALIDGFREGFYLFPDGRNQNPDLTGLCEPTPQDHIKVTQEQYELCCEMGSTFQLCKICAENDKDVKIEPCGHLMCTSCLTSWQESEGQGCPFCRCEIKGTEPIVVDPFD
10 µM	His-GST-N-Cbl Y371D (residues 47-435) (domain or fragment, UniProt P22681 47-435, looked up, Cbl (c-Cbl), N-terminal fragment with TKBD, linker helix region and RING domain (N-Cbl), residues 47-435; mutation identified in MDS/MPN clinical samples; Tag not cleaved for SPR; not shown: His, N-terminal, kept; GST, N-terminal, kept) PPGTVDKKMVEKCWKLMDKVVRLCQNPKLALKNSPPYILDLLPDTYQHLRTILSRYEGKMETLGENEYFRVFMENLMKKTKQTISLFKEGKERMYEENSQPRRNLTKLSLIFSHMLAELKGIFPSGLFQGDTFRITKADAAEFWRKAFGEKTIVPWKSFRQALHEVHPISSGLEAMALKSTIDLTCNDYISVFEFDIFTRLFQPWSSLLRNWNSLAVTHPGYMAFLTYDEVKARLQKFIHKPGSYIFRLSCTRLGQWAIGYVTADGNILQTIPHNKPLFQALIDGFREGFYLFPDGRNQNPDLTGLCEPTPQDHIKVTQEQYELDCEMGSTFQLCKICAENDKDVKIEPCGHLMCTSCLTSWQESEGQGCPFCRCEIKGTEPIVVDPFD
14 µM	His-GST-N-Cbl M222E (residues 47-435) (domain or fragment, UniProt P22681 47-435, looked up, Cbl (c-Cbl), N-terminal fragment with TKBD, linker helix region and RING domain (N-Cbl), residues 47-435; Tag not cleaved for SPR; not shown: His, N-terminal, kept; GST, N-terminal, kept) PPGTVDKKMVEKCWKLMDKVVRLCQNPKLALKNSPPYILDLLPDTYQHLRTILSRYEGKMETLGENEYFRVFMENLMKKTKQTISLFKEGKERMYEENSQPRRNLTKLSLIFSHMLAELKGIFPSGLFQGDTFRITKADAAEFWRKAFGEKTIVPWKSFRQALHEVHPISSGLEAEALKSTIDLTCNDYISVFEFDIFTRLFQPWSSLLRNWNSLAVTHPGYMAFLTYDEVKARLQKFIHKPGSYIFRLSCTRLGQWAIGYVTADGNILQTIPHNKPLFQALIDGFREGFYLFPDGRNQNPDLTGLCEPTPQDHIKVTQEQYELYCEMGSTFQLCKICAENDKDVKIEPCGHLMCTSCLTSWQESEGQGCPFCRCEIKGTEPIVVDPFD
84 µM	His-GST-N-Cbl Y371F (residues 47-435) (domain or fragment, UniProt P22681 47-435, looked up, Cbl (c-Cbl), N-terminal fragment with TKBD, linker helix region and RING domain (N-Cbl), residues 47-435; Tag not cleaved for SPR; not shown: His, N-terminal, kept; GST, N-terminal, kept) PPGTVDKKMVEKCWKLMDKVVRLCQNPKLALKNSPPYILDLLPDTYQHLRTILSRYEGKMETLGENEYFRVFMENLMKKTKQTISLFKEGKERMYEENSQPRRNLTKLSLIFSHMLAELKGIFPSGLFQGDTFRITKADAAEFWRKAFGEKTIVPWKSFRQALHEVHPISSGLEAMALKSTIDLTCNDYISVFEFDIFTRLFQPWSSLLRNWNSLAVTHPGYMAFLTYDEVKARLQKFIHKPGSYIFRLSCTRLGQWAIGYVTADGNILQTIPHNKPLFQALIDGFREGFYLFPDGRNQNPDLTGLCEPTPQDHIKVTQEQYELFCEMGSTFQLCKICAENDKDVKIEPCGHLMCTSCLTSWQESEGQGCPFCRCEIKGTEPIVVDPFD
49 µM	His-GST-N-Cbl Y368F (residues 47-435) (domain or fragment, UniProt P22681 47-435, looked up, Cbl (c-Cbl), N-terminal fragment with TKBD, linker helix region and RING domain (N-Cbl), residues 47-435; Tag not cleaved for SPR; not shown: His, N-terminal, kept; GST, N-terminal, kept) PPGTVDKKMVEKCWKLMDKVVRLCQNPKLALKNSPPYILDLLPDTYQHLRTILSRYEGKMETLGENEYFRVFMENLMKKTKQTISLFKEGKERMYEENSQPRRNLTKLSLIFSHMLAELKGIFPSGLFQGDTFRITKADAAEFWRKAFGEKTIVPWKSFRQALHEVHPISSGLEAMALKSTIDLTCNDYISVFEFDIFTRLFQPWSSLLRNWNSLAVTHPGYMAFLTYDEVKARLQKFIHKPGSYIFRLSCTRLGQWAIGYVTADGNILQTIPHNKPLFQALIDGFREGFYLFPDGRNQNPDLTGLCEPTPQDHIKVTQEQFELYCEMGSTFQLCKICAENDKDVKIEPCGHLMCTSCLTSWQESEGQGCPFCRCEIKGTEPIVVDPFD
30 µM	His-GST-N-Cbl Y371A (residues 47-435) (domain or fragment, UniProt P22681 47-435, looked up, Cbl (c-Cbl), N-terminal fragment with TKBD, linker helix region and RING domain (N-Cbl), residues 47-435; Tag not cleaved for SPR; not shown: His, N-terminal, kept; GST, N-terminal, kept) PPGTVDKKMVEKCWKLMDKVVRLCQNPKLALKNSPPYILDLLPDTYQHLRTILSRYEGKMETLGENEYFRVFMENLMKKTKQTISLFKEGKERMYEENSQPRRNLTKLSLIFSHMLAELKGIFPSGLFQGDTFRITKADAAEFWRKAFGEKTIVPWKSFRQALHEVHPISSGLEAMALKSTIDLTCNDYISVFEFDIFTRLFQPWSSLLRNWNSLAVTHPGYMAFLTYDEVKARLQKFIHKPGSYIFRLSCTRLGQWAIGYVTADGNILQTIPHNKPLFQALIDGFREGFYLFPDGRNQNPDLTGLCEPTPQDHIKVTQEQYELACEMGSTFQLCKICAENDKDVKIEPCGHLMCTSCLTSWQESEGQGCPFCRCEIKGTEPIVVDPFD
